The values below come from paper PMC10883919.

This data set has as its target T1, TcrX D54A D54A (Mycobacterium tuberculosis H37Rv) (UniProt O69730).
T1 sequence: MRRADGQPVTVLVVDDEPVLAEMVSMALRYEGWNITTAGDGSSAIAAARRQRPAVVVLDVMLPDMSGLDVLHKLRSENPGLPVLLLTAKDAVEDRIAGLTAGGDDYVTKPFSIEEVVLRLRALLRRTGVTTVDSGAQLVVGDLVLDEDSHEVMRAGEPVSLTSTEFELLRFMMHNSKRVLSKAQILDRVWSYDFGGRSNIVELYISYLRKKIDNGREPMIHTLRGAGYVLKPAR
Description: EMSA. On the technique in general: In EMSA bound probe runs differently from free probe, usually more slowly.

Regarding “TACGACACGCTCAACCGAGATGCGGTGCTGCGTCACAGCGTCAAGTATCCGCACACGGCTGAGCAGACGCCATGCGGATCCTATGTGCGCGCTATGAAACCCGATTTG (double strand) [PtcrXY]”, the binding entry is listed as “binds”.
